Assay results reported in US20170066831A1 (Janssen / Centocor, published 2017).

Legend:
[1] = molecular target: T1, human ST2L, full length, on cells (human, UniProt Q01638 19-556); assay: cell-based or functional assay
T1 sequence: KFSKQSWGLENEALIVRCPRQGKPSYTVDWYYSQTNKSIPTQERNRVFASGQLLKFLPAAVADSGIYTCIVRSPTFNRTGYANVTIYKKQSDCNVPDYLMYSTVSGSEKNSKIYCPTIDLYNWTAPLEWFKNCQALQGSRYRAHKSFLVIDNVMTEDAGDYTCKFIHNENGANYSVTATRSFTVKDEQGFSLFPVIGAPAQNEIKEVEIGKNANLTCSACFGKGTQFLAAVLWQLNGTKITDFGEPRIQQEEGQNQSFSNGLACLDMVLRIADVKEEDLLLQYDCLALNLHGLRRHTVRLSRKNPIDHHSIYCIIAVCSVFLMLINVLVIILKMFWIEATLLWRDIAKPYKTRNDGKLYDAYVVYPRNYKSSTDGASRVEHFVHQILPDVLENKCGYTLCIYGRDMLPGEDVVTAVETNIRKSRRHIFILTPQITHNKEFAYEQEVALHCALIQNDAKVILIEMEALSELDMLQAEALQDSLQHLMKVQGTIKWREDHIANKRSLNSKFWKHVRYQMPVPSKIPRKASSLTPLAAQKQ

[2] = molecular target: T2, HH-ST2L (human ST2L Domains I and II), wild type (human, UniProt Q01638 19-205); assay: SPR, ProteOn XPR36, 25 C; mAb captured on anti-Fc surface, ST2L-D1D2 (HH-ST2L) protein injected; 1:1 model
T2 construct: also called ST2L-D1D2
T2 sequence: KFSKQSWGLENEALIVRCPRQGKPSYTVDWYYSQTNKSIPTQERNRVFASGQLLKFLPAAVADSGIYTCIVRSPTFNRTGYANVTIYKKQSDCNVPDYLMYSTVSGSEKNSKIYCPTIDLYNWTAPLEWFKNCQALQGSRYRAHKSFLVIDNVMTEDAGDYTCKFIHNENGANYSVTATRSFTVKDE
Experimental: Binding studies were performed using the ProteOn XPR36 Protein Interaction Array system (Bio-Rad) (Bravman T, et al. Anal Biochem 358:281-288, 2006). […] Individual anti-ST2L mAb was then captured by flowing (1 μg/mL) antibody solution prepared in PBS containing 0.5% Nonidet P-40 and 0.5% Na-deoxycholate). The signal in the surfaces reached ˜250 resonance units (RU, 1 RU=1 pg protein/mm²) in the anti-Fc-coated surfaces, confirming that these antibodies specifically capture anti-ST2L mAbs. After 90° rotation of the fluid system, wild type of ST2L-D1D2 or variant proteins (0.5 mg/mL in PBS containing 0.5% Nonidet P-40 and 0.5% Na-deoxycholate) was injected in the parallel flow channels. All of these assays were performed at 25° C. The ST2L-D1D2-dependent signals on the surfaces were obtained by double referencing, subtracting the response observed on surfaces immobilizing the antibodies alone, and the signal observed injecting the vehicle alone (which allows correction for binding-independent responses). The resulting sensorgrams were fitted by the simplest 1:1 interaction model (ProteOn analysis software), to obtain the corresponding association and dissociation rate constants (kₐ and kd).

RGA IC50 [1]: 0.61 µg/mL
koff [2]: 0.000122 s⁻¹
kon [2]: 1.14e+07 M⁻¹ s⁻¹
B1: STLM208 (antibody, V domains shown)
VH: EVQLLESGGGLVQPGGSLRLSCAASGFTFSIYDMIWVRQAPGKGLEWVSSIRGEGGGTYYADSVKGRFTISRDNSKNTLYLQMNSLRAEDTAVYYCARDPWSTEGSFFVLDYWGQGTLVTVSS
VL: EIVLTQSPATLSLSPGERATLSCRASQSVDDDLAWYQQKPGQAPRLLIYDASNRATGIPARFSGSGSGTDFTLTISSLEPEDFAVYYCQQYITAPLTFGQGTKVEIK
notes: frameworks VH3-23 / Vk-L6
